Molecular target: calcitonin receptor (bovine (endogenous in bovine articular cartilage explants))

## salmon calcitonin (peptide)
  share of CTR-positive cells (immunohistochemistry) in the deep layer of T3-induced explants after four days of co-stimulation with 1 nM and 10 nM sCT: < 43%

Source: PMC3386925
